Test results: patent publication US20230303681A1 (published 2023)
Changes are numbered by the printed parent chain. Where “and” joins values, the source holds several entries; their conditions need not be identical. Equal entries are not always repeated.

B1: anti-TMEM106B antibody TM-13 (antibody, V domains shown)
VH: QVQLQQSGAELVKPGASVKMSCKASGYTFTTFPIEWMKQSHGKGLEWIGNFHPYNDDTKYNEKFKGKATLTVDKSSSTVYLDLSRLTSDDSAVYYCARYFYGGMDYWGQGTSVTVSS
VL: DIQMTQSPASLSVSVGETVTITCRASENIYSSLGWYQQKQGESPQLLVFAATNLADGVPSRFSGSGSGTQYSLKINSLQSEDFGTYYCQHLWSIPWTFGGGTRLEIK
B2: anti-TMEM106B antibody TM-5 (antibody, V domains shown)
VH: QVQLQQSGTELARPGASVKVSCKASGYIFTTYGITWVKQRGGQGLEWIGEIYPRSDNTYYNEKFKDKATLTADKSSSTAYMELRSLTSEDSAVYFCARSKGSGTGDYWGQGTTVTVSS
VL: DIQMTQSPASLSASVGETVTITCRASENIYIYLAWYQQKQGKTPQLLVYNGKMLAENVPSRFSGSGSGTQFSLKINSLQPEDFGSYYCQHHYGSPPAFGAGTKLELK
B3: anti-TMEM106B antibody TM-29 (antibody, V domains shown)
VH: QVQLRQSGAELVRPGASVKLSCKASGYTFTDYYINWVKQRPGQGLEWIARIYPGSGYTYYNEKFKGKATLTAEGSSNTAYMQLSSLTSEDSAVYFCANHYTNPFAYWGQGTLVTVSA
VL: DIVMTQAAFSNPVTLGTSASISCRSSKSLLHYNGITYLYWYLQKPGQSPQLLIYQMSNLASGVPDRFSSSGSGTDFTLRISRVEAEDVGVYYCAQNLELPYTFGGGTKLEIK
B4: anti-TMEM106B antibody TM-3 (antibody, V domains shown)
VH: QVTLKESGPGIVQPSQTLSLTCSFSGFSLNTLGRGVGWIRQPSGKGLEWLAKIWWNDDKFYYPALKSRLTISKDTSKNQIFLKIANVDTADSATYYCARIAGGTGAAYWGQGTTLTVSS
VL: B3 VL with Y32S, Y54S, N58S, S70G, Y91F, Y101W, I111L
B5: anti-TMEM106B antibody TM-23 (antibody, V domains shown)
VH: QVQLQQSGAELIRPGTSVKVSCKASGYAFTNYLIEWVKKRPGQGLEWIGVINPGSGITNYNEKFKGKATLTADKSSSTAYMQLSSLTSEDSAVYFCARSDFITTVVADYWGQGTTVTVSS
VL: DIVVTQTPLSLPVSFGDQVSISCRSSQSLTNYYGNTYLSWYLHKPGQSPQLLIYGISNRFSGVPDRFSGSGSGTDFTLKISTIKPEDLGMYYCLQGTHQPRTFGGGTKLEIK
B6: anti-TMEM106B antibody TM-26 (antibody, V domains shown)
VH: B5 VH
VL: B5 VL
B7: anti-TMEM106B antibody TM-25 (antibody, V domains shown)
VH: EVQLVESGGDLVKPGGSLRLSCAASGFTFSGYGMSWIRQTPDKRLEWVATISSGGRYTVYPDSVKGRFTMSRDNVKNTLYLQMSSLKSEDTALYYCARDNFYSYAMDYWGLGTSVTVSA
VL: DIVMTQAAFSNPVTLGTSASISCRSSKSLLHSNGITYLFWYLQKPGQSPQLLIYQMSNLASGVPDRFSSSGSGTDFTLRISRVEAEDVGVYYCAQNLELWTFGGGTKLEIK
B8: anti-TMEM106B antibody TM-28 (antibody, V domains shown)
VH: EVQLQQSGPVLVKPGPSVKISCMASVFTFNDYYIHWVKQSHGKSLEWIGLVYPYNGGTNYNQNFKGKATLTVDTSSRTAYMELNSLTSEDSAVYYCARSYFSNPIGYWGQGTLVTVSE
VL: DIVMTQSPSSLSVSVGEKVTVSCKSSQSLLNSGNQKNYLAWYQQKPGQPPKLLIYGASTRESGVPDRFTGSGSGTDFTLTISSVQAEDLAVYYCQNDHSYPLTFGAGTKLELK
B9: anti-TMEM106B antibody TM-27 (antibody, V domains shown)
VH: QVQLQQSGAELVRPGTSVKVSCKASGYALTNYLIEWVKQRPGQGLEWIGVINPGSGSTKYNEKFKGKATLTADKSSSTAYMQLSSLTSEDSAVYFCARIIYDHDWYFDVWGTGTTVTVSS
VL: QIVLTQSPAIMSASPGEKVTISCSASSSISYMYWYQQKPGSSPKPWIYRTSTLASGVPARFSGSGSGTSYSLTISSMEAEDAATYYCQQYHSYPRTFGGGTKLEIK

Tests used:
human TMEM106B [1] = biological target: T1, human TMEM106B (human, UniProt Q9NUM4 2-274); test: FACS U251;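 further: flow cytometry of cells exposed to antibody (purified at 10 µg/mL, or hybridoma supernatant) for 1 h on ice, with propidium iodide-positive dead cells gated out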
T1 construct: Full-length, on transiently transfected HEK293 cells, or natively expressed on HeLa, U251 and A549 cells; also called huTMEM106B; huTMEM
Experimental: (§1) All cells were cultured in either T75 or T150 flasks. […] The enzyme was quenched by addition of fresh media, and the cells were then distributed into 96-well plates for FACS analysis.
(§2) FACS analysis was performed as follows. Each cell type was aliquoted in 96-well round bottom plates (2x10^5 cells per well), washed once with FACS buffer (PBS + 2% FBS + 1 mM EDTA), and incubated with 50 µL of hybridoma supernatant or purified antibody (10 µg/ml in FACS buffer) on ice for 1 hour. […] Following this secondary incubation, the cells were again washed 2x with ice-cold FACS buffer and resuspended in a final volume of 50 µL of FACS buffer + 0.25 µl/well propidium iodide (Fisher Scientific # BDB556463). Analysis was performed on a FACSCanto system (BD Biosciences) or iQue (Intellicyt), with sort gates drawn to exclude dead (i.e., propidium iodide positive) cells.
(§3) Data is presented as mean fluorescence intensity (MFI).

human TMEM106B [2] = biological target: T1, human TMEM106B; test: FACS A549
[3] = biological target: T2, GST-fusion human TMEM106B truncated (human); test: array SPR, Ab immobilised;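 further: antibodies amine-coupled on an MX-96 chip, antigen flowed at 500 nM top concentration in 5-fold serial dilutions, GST alone run as nonspecific-binding control, duplicate measurements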
T2 construct: also called GST-TMEM106B-truncated protein; GST-TMEM106B (truncated)
Experimental: Binding kinetic characterization of the purified antibodies was performed by Carterra using a proprietary array SPR instrument (MX-96) as follows. Briefly, antibodies were prepared by diluting to 5 µg/ml in 10 mM Acetate, pH 4.5 (Carterra), at 150 µL/well and then made an additional dilution at 1:10 from there by titrating 11 µl into 100 µL. […] The chip was activated with 18 mM EDC (Sigma Bioxtra) and 4.5 mM S-NHS (Thermo Fisher) diluted in 100 mM MES, pH 5.5, for 7 minutes, and then antibodies were coupled for 10 minutes at 45 µL/minute. After coupling, the chip was returned to the MX-96 and quenched for 7 minutes using 1 M Ethanolamine pH 8.5 (Carterra).
Printed antibodies were profiled for their ability to bind GST-TMEM106B (truncated) protein (described above). Briefly, GST-TMEM106B (truncated) antigen was diluted to 18 µg/ml (500 nM of 36 kDa fusion protein) by mixing 2.7 µL of 2.0 mg/ml antigen into 298 µL Running buffer (HBS-EP+, Teknova with 1 mg/ml BSA, Sigma), and titrated 50 µl into 200 µl for 5-fold serial dilutions. In addition, binding to GST (Pierce) was assayed under the same conditions to determine the extent of any nonspecific binding of the anti-TMEM106B antibodies to GST portion of the TMEM106B-GST fusion protein. Duplicate measurements for each anti-TMEM106B antibody were taken to ensure reproducibility.

human TMEM106B [4] = biological target: T1, human TMEM106B; test: FACS A549, 10 ug/ml
Experimental: (§4) Purified anti-TMEM106B antibodies were evaluated for their binding affinity to various TMEM106B-expressing cell lines including HEK293 transiently transfected with human/cyno/mouse TMEM106B, as well as HeLa cells and A549 cells. Antibodies tested for this experiment were mouse IgGs purified from hybridoma supernatant. Affinity binding to cells was determined as follows. Briefly, 1x10^5 cells were aliquoted per well in 96-well round bottom plates and incubated with 50 µL of purified anti-TMEM106B antibody at various concentrations (10x dilutions starting at 10 µg/ml) in FACS buffer (PBS + 2% FBS + 1 mM EDTA). […] Sorting was performed on a iQue (Intellicyt), with sort gates drawn to exclude dead (propidium iodide +) cells. Binding data was analyzed using median fluorescent intensity (MFI) and graphed in Prism. Values presented are MFI.

human TMEM106B [5] = biological target: T1, human TMEM106B; test: FACS HEK+huTMEM, 0.1 ug/ml;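 further: flow cytometry binding of purified mouse IgG antibodies to HEK293 cells transiently expressing TMEM106B, read as median fluorescence intensity with propidium iodide positive dead cells gated out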
human TMEM106B [6] = biological target: T1, human TMEM106B; test: FACS HEK+huTMEM, 0.01 ug/ml
Experimental: as §4

human TMEM106B [7] = biological target: T1, human TMEM106B; test: FACS, HEK293 transfectants;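 on fold over negative controls: hybridoma supernatants incubated 30 min on ice with human TMEM106B-expressing HEK293 cells, binding read as anti-mouse-APC median fluorescence on live cells, relative to secondary-antibody-only wells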;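 on fold-change over parental HEK293: flow cytometry binding of hybridoma supernatants to HEK293 cells transiently expressing human, cyno or mouse TMEM106B, read as anti-mouse-APC median fluorescence, live cells only, 30 min on ice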
Experimental: Initial screening of the anti-TMEM106B hybridomas was performed as follows.
For screening of the hybridoma cell culture supernatants, humanTMEM106B-transfected HEK293 cells were aliquoted in 96-well round bottom plates (2x10^5 cells per well) and incubated with 50 µL of hybridoma cell culture supernatant on ice for 30 minutes. […] Cell sorting was performed on a FACS Canto system (BD Biosciences) or iQue (Intellicyt), with sort gates drawn to exclude dead (i.e., propidium iodide-positive) cells. Median fluorescence intensity (MFI) of anti-mouse-APC MFI on TMEM106B+ HEK293 cells was calculated for each clone, and those displaying a signal of at least 2-fold over background compared to a secondary-antibody only well were taken forward for further analysis and characterization.

mouse TMEM106B [8] = biological target: T3, mouse TMEM106B (mouse, UniProt Q80X71 2-275); test: FACS Neuro2a;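 further: flow cytometry of cells stained with antibody or hybridoma supernatant (purified antibody at 10 µg/ml) for 1 h on ice, propidium iodide–positive dead cells gated out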
T3 construct: on transiently transfected HEK293 cells, or natively expressed on mouse Neuro2a cells; also called moTMEM106B; murine TMEM106B
Experimental: as §1, §2, §3

human TMEM106B [9] = biological target: T1, human TMEM106B; test: FACS A549, 1 ug/ml
GST (Pierce) = biological target: T4, GST (Pierce) (UniProt P08515 1-218 = GST, limits assumed); test: ELISA, coated GST;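 further: ELISA on plates coated with GST alone at 1-10 µg/ml, antibodies applied at 100-1000x dilution, bound antibody detected by peroxidase substrate colour after acid stop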
T4 construct: control for the GST part of the fusion protein; also called GST protein; Glutathione-S-transferase
Experimental: Briefly, 96-well polystyrene plates were coated with 1-10 µg/ml of recombinant GST-TMEM106B-truncated protein or GST (Pierce) in PBS either at 370 Cfor 1-4 hours or overnight at 4 °C. Coated plates were then blocked with 5% BSA for 1-hour, washed 3×150 µL in TBST (Tris-buffered saline + 0.1% Tween20), and then the antibodies were added at various dilutions (100-1000x) in PBS. After 1-hour incubation (room temperature, with shaking), the plates were washed 3x150 µL in TBST. […] After a final set of washes (3×150µL in TBST), 100 µL of peroxidase substrate was added for 1 minute; the reaction was then quenched with 2N sulfuric acid (100 µL).

human TMEM106B [10] = biological target: T1, human TMEM106B; test: FACS HEK+huTMEM, 1.0 ug/ml
human TMEM106B [11] = biological target: T1, human TMEM106B; test: FACS HeLa;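 further: flow cytometry of cells incubated with hybridoma supernatant or purified antibody at 10 µg/ml for 1 h on ice, propidium iodide–positive dead cells gated out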
[12] = biological target: T5, cynomolgus (cyno) TMEM106B (cynomolgus, UniProt Q9NUM4 2-274 (human entry)); test: FACS, HEK293 transfectants;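 further: flow cytometry binding of hybridoma supernatants to HEK293 cells transiently expressing human, cyno or mouse TMEM106B, read as anti-mouse-APC median fluorescence, live cells only, 30 min on ice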
T5 construct: on transiently transfected HEK293 cells
Experimental: (§5) For screening of the hybridoma cell culture supernatants, humanTMEM106B-transfected HEK293 cells were aliquoted in 96-well round bottom plates (2x10^5 cells per well) and incubated with 50 µL of hybridoma cell culture supernatant on ice for 30 minutes. […] Median fluorescence intensity (MFI) of anti-mouse-APC MFI on TMEM106B+ HEK293 cells was calculated for each clone, and those displaying a signal of at least 2-fold over background compared to a secondary-antibody only well were taken forward for further analysis and characterization.

human TMEM106B [13] = biological target: T1, human TMEM106B; test: FACS, HEK293 transfectants; remark: listed apart in the source;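 on fold over negative controls: hybridoma supernatants incubated 30 min on ice with human TMEM106B-expressing HEK293 cells, binding read as anti-mouse-APC median fluorescence on live cells, relative to secondary-antibody-only wells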;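 on fold-change over parental HEK293: flow cytometry binding of hybridoma supernatants to HEK293 cells transiently expressing human, cyno or mouse TMEM106B, read as anti-mouse-APC median fluorescence, live cells only, 30 min on ice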
Experimental: as §5

mouse TMEM106B [14] = biological target: T3, mouse TMEM106B; test: FACS, HEK293 transfectants;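 further: flow cytometry binding of hybridoma supernatants to HEK293 cells transiently expressing human, cyno or mouse TMEM106B, read as anti-mouse-APC median fluorescence, live cells only, 30 min on ice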
Experimental: as §5

human TMEM106B [15] = biological target: T1, human TMEM106B; test: FACS HEK+huTMEM, 10 ug/ml;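 further: purified mouse IgG antibodies at 10 µg/ml bound to HEK293 cells transiently expressing human TMEM106B, measured by flow cytometry as median fluorescence intensity of propidium iodide negative live cells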
Experimental: as §4

Row | Binder | MFI (human TMEM106B [1]) | MFI (human TMEM106B [2]) | Kd [3] | koff [3] | kon [3] | MFI (human TMEM106B [4]) | MFI (human TMEM106B [5]) | MFI (human TMEM106B [6]) | fold over negative controls (human TMEM106B [7]) | MFI (mouse TMEM106B [8]) | MFI (human TMEM106B [9]) | binding result (GST (Pierce)) | MFI (human TMEM106B [10]) | MFI (human TMEM106B [11]) | fold-change over parental HEK293 [12] | fold-change over parental HEK293 (human TMEM106B [13]) | fold-change over parental HEK293 (mouse TMEM106B [14]) | MFI (human TMEM106B [15])
1 | B1 | 787 | 1260 | 2.4 nM and 2 nM | 7e-05 s⁻¹ and 8.4e-05 s⁻¹ | 29000 M⁻¹ s⁻¹ and 42000 M⁻¹ s⁻¹ | 3890 | 19100 | 2900 | > 2 fold | 927 | 1950 | no binding | 67100 | 1380 | 55.5 fold | 36.7 fold | 52.7 fold | 67500
2 | B2 | 866 | 1170 | 1.4 nM and 1.8 nM | 3.3e-05 s⁻¹ and 4.8e-05 s⁻¹ | 23000 M⁻¹ s⁻¹ and 26000 M⁻¹ s⁻¹ | 4800 | 10800 | 2180 | > 2 fold | 1610 | 1970 | no binding | 64500 | 1740 | 37 fold | 11.4 fold | 26.6 fold | 59300
3 | B3 | 730 | 1410 | 3.5 nM and 5.2 nM | 6.5e-05 s⁻¹ and 7.8e-05 s⁻¹ | 18000 M⁻¹ s⁻¹ and 15000 M⁻¹ s⁻¹ | 4200 | 24400 | 4050 | > 2 fold | 1480 | 2480 | no binding | 63300 | 1650 | 66 fold | 35.1 fold | 44.6 fold | 61200
4 | B4 | 1080 | 1800 | 1.7 nM and 2.1 nM | 3.8e-05 s⁻¹ and 4.8e-05 s⁻¹ | 22000 M⁻¹ s⁻¹ and 23000 M⁻¹ s⁻¹ | 7670 | 48700 | 7700 | > 2 fold | 1980 | 4840 | no binding | 89100 | 2690 | 40.5 fold | 24.4 fold | 29.2 fold | 82300
5 | B5 | 278 | 1090 | 12 nM and 26 nM | 0.00045 s⁻¹ and 0.001 s⁻¹ | 36000 M⁻¹ s⁻¹ and 41000 M⁻¹ s⁻¹ | 757 | 2410 | 1100 | > 2 fold | 333 | 398 | no binding | 3900 | 308 | 12.2 fold | 7.09 fold | 4.46 fold | 12400
6 | B6 | 300 | 952 | 12 nM and 19 nM | 0.00041 s⁻¹ and 0.00085 s⁻¹ | 34000 M⁻¹ s⁻¹ and 45000 M⁻¹ s⁻¹ | 509 | 1960 | 1000 | > 2 fold | 324 | 380 | no binding | 3340 | 384 | 18 fold | 11.8 fold | 6.54 fold | 3850
7 | B7 | 1110 | 1700 | 1.5 nM and 2.6 nM | 3.3e-05 s⁻¹ and 5.8e-05 s⁻¹ | 22000 M⁻¹ s⁻¹ | 7000 | 32800 | 4310 | > 2 fold | 354 | 4530 | no binding | 64700 | 2560 | 21.4 fold | 13 fold | 2.87 fold | 60300
8 | B8 | 998 | 2000 | 5.3 nM | 7.2e-05 s⁻¹ | 14000 M⁻¹ s⁻¹ | 4350 | 19800 | 3340 | > 2 fold | 2740 | 2630 | no binding | 66400 | 2790 | 33.7 fold | 19.7 fold | 22.1 fold | 64800
9 | B9 | 1320 | 1930 | 16 nM and 18 nM | 0.00048 s⁻¹ and 0.00068 s⁻¹ | 31000 M⁻¹ s⁻¹ and 39000 M⁻¹ s⁻¹ | 622 | 1700 | 744 | > 2 fold | 1580 | 431 | no binding | 3040 | 2960 | 13.5 fold | 7.62 fold | 3.32 fold | 4140
